Reference: US20030229005A1 (BIOZYME, published 2003)
Primed or numbered codes have the meaning given here. The star is where a group is joined. Dabcyl′ = CN(C)c1ccc(/N=N/c2ccc(C(=O)*)cc2)cc1; Dnp = O=[N+]([O-])c1ccc(*)c([N+](=O)[O-])c1; fluorescein = fluorescein label

Key:
Assay in all cases: cell-based or functional assay
human Gelatinase-A [1] = target: T1, human Gelatinase-A (human, UniProt P08253 110-660, limits assumed)
T1 sequence (looked up): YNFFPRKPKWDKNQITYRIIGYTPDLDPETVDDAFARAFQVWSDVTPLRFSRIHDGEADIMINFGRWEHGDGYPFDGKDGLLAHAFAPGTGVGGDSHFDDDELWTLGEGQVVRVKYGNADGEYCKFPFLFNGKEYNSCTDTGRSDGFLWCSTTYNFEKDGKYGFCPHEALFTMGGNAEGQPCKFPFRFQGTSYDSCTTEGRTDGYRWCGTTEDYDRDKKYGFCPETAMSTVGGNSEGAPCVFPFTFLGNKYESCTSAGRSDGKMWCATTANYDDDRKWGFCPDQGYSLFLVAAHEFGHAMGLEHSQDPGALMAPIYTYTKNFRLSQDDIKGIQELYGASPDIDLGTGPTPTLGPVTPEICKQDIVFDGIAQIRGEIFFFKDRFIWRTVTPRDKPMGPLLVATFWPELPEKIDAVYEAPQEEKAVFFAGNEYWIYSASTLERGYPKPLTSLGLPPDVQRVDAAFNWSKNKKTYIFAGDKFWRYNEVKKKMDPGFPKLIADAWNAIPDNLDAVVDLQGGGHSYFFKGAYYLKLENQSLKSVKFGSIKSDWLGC

gelatinase B [2] = target: T2, gelatinase B (UniProt P14780 107-707, limits assumed)
collagenase 1 [3] = target: T3, collagenase 1 (UniProt P03956 100-469, limits assumed)
T3 sequence (looked up): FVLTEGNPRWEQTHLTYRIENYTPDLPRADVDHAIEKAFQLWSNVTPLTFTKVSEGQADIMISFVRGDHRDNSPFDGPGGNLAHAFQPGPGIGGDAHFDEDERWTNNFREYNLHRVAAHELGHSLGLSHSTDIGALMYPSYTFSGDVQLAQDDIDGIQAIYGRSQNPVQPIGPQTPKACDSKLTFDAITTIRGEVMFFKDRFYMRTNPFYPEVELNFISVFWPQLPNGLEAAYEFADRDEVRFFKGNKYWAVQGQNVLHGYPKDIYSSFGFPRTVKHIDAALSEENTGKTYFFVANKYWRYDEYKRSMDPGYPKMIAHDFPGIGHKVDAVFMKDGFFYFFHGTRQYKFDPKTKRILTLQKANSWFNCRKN

stromelysin 1 [4] = target: T4, stromelysin 1 (UniProt P08254 100-477, limits assumed)
human Gelatinase-A [5] = target: T1, human Gelatinase-A; remark: listed apart in the source
gelatinase B [6] = target: T2, gelatinase B; remark: listed apart in the source
collagenase 1 [7] = target: T3, collagenase 1; remark: listed apart in the source
stromelysin 1 [8] = target: T4, stromelysin 1; remark: listed apart in the source
human Collagenase-3 = human Collagenase-3 (human, UniProt P45452 104-471, limits assumed)
human Gelatinase-A [9] = target: T1, human Gelatinase-A; remark: listed apart in the source
gelatinase B [10] = target: T2, gelatinase B; remark: listed apart in the source
collagenase 1 [11] = target: T3, collagenase 1; remark: listed apart in the source
stromelysin 1 [12] = target: T4, stromelysin 1; remark: listed apart in the source
collagenase 1 [13] = target: T3, collagenase 1; remark: listed apart in the source

T4 sequence (P08254 100-477 limits assumed): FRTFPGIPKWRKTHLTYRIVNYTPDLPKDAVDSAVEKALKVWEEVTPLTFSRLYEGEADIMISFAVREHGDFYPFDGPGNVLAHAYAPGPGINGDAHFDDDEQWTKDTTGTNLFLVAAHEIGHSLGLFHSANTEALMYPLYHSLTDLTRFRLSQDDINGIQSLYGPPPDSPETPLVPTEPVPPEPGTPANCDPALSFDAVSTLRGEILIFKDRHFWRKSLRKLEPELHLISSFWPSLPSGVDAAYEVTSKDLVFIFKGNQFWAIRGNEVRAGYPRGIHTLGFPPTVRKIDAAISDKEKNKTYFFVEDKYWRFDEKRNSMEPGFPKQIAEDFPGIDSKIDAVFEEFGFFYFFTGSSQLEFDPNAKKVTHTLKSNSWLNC
T2 sequence (P14780 107-707 limits assumed): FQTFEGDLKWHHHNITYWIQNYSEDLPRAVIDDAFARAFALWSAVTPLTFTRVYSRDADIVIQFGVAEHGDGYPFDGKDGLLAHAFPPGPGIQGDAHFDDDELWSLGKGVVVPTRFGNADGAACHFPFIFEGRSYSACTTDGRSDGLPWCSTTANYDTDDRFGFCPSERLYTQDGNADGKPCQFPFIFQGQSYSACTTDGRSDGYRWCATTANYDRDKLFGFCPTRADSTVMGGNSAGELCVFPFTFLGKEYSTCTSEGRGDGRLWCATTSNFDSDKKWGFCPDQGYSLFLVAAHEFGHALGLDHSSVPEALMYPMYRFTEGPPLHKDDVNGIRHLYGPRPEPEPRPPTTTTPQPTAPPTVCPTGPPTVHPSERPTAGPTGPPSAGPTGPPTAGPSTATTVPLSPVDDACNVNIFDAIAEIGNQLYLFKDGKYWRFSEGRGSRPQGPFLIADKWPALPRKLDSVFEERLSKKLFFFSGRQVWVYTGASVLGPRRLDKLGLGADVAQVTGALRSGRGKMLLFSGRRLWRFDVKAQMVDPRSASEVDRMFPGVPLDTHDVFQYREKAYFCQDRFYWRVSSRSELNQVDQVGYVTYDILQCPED

B1: Dnp-GPSGIHL-NH2 (peptide)
peptide: Dnp-GPSGIHL-NH2
SMILES: CC[C@H](C)[C@H](NC(=O)CNC(=O)[C@H](CO)NC(=O)[C@@H]1CCCN1C(=O)CNc1ccc([N+](=O)[O-])cc1[N+](=O)[O-])C(=O)N[C@@H](Cc1c[nH]cn1)C(=O)N[C@@H](CC(C)C)C(N)=O
Human Gelatinase-A [1]
  Selectivity v. Coll-3: 8 unitless
Gelatinase B [2]
  Selectivity v. Coll-3: 6 unitless
Collagenase 1 [3]
  Selectivity v. Coll-3: 3440 unitless
Stromelysin 1 [4]
  Selectivity v. Coll-3: 2040 unitless

B2: Dnp-GPVNLHG-NH2 (peptide)
peptide: Dnp-GPVNLHG-NH2
SMILES: CC(C)C[C@H](NC(=O)[C@H](CC(N)=O)NC(=O)[C@@H](NC(=O)[C@@H]1CCCN1C(=O)CNc1ccc([N+](=O)[O-])cc1[N+](=O)[O-])C(C)C)C(=O)N[C@@H](Cc1c[nH]cn1)C(=O)NCC(N)=O
Human Gelatinase-A [1]
  Selectivity v. Coll-3: 25 unitless
Gelatinase B [2]
  Selectivity v. Coll-3: 11 unitless
Collagenase 1 [3]
  Selectivity v. Coll-3: 459 unitless
Stromelysin 1 [4]
  Selectivity v. Coll-3: 1260 unitless

## {Dabcyl′}-GPHPFRGC(fluorescein)-NH2 [Dabcyl-GPHPFRGC(Flu)-NH2]
Human Gelatinase-A [5]
  Selectivity v Col-3: 14.8 unitless
Gelatinase B [6]
  Selectivity v Col-3: 2.6 unitless
  Selectivity v Col-3, + Gel: 11.6 unitless
Collagenase 1 [7]
  Selectivity v Col-3: 87.8 unitless
  Selectivity v Col-3, + Gel: 168 unitless
Stromelysin 1 [8]
  Selectivity v Col-3: 43.9 unitless
  Selectivity v Col-3, + Gel: 53.8 unitless

## {Dabcyl′}-GPVNLHGC(fluorescein)-NH2 [Dabcyl-GPVNLHGC(Flu)-NH2]
Human Collagenase-3
  increase in specificity with type II collagen: 2.5 fold
Human Gelatinase-A [5]
  Selectivity v Col-3: 2.3 unitless
  Selectivity v Col-3, + Gel: 26.5 unitless
Gelatinase B [6]
  Selectivity v Col-3: 0.7 unitless
  Selectivity v Col-3, + Gel: 6 unitless
Collagenase 1 [7]
  Selectivity v Col-3: 128 unitless
  Selectivity v Col-3, + Gel: 92.3 unitless
Stromelysin 1 [8]
  Selectivity v Col-3: 71.3 unitless
  Selectivity v Col-3, + Gel: 72.5 unitless
Human Gelatinase-A [9]
  Improvement In Selectivity for 44 ug/ml Type II Collagen vs no Type II Collagen: 80 fold
  Selectivity v Col-3, + 1.6 ug/ml TIICol: 9.3 unitless
  Selectivity v Col-3, + 4.9 ug/ml TIICol: 26.3 unitless
  Selectivity v Col-3, + 15 ug/ml TIICol: 75.9 unitless
  Selectivity v Col-3, + 44 ug/ml TIICol: 465 unitless
  Selectivity v Col-3, + .18 ug/ml TIICol: 7.7 unitless
  Selectivity v Col-3, + .55 ug/ml TIICol: 9.9 unitless
  Selectivity v Col-3, no TIICol: 5.8 unitless
Gelatinase B [10]
  Improvement In Selectivity for 44 ug/ml Type II Collagen vs no Type II Collagen: 46 fold
  Selectivity v Col-3, + 1.6 ug/ml TIICol: 3 unitless
  Selectivity v Col-3, + 4.9 ug/ml TIICol: 5.7 unitless
  Selectivity v Col-3, + 15 ug/ml TIICol: 15.2 unitless
  Selectivity v Col-3, + 44 ug/ml TIICol: 58.8 unitless
  Selectivity v Col-3, + .18 ug/ml TIICol: 1.8 unitless
  Selectivity v Col-3, + .55 ug/ml TIICol: 2.2 unitless
  Selectivity v Col-3, no TIICol: 1.3 unitless
Collagenase 1 [11]
  Improvement In Selectivity for 44 ug/ml Type II Collagen vs no Type II Collagen: 2.5 fold
  Selectivity v Col-3, + 1.6 ug/ml TIICol: 227 unitless
  Selectivity v Col-3, + 4.9 ug/ml TIICol: 265 unitless
  Selectivity v Col-3, + 15 ug/ml TIICol: 355 unitless
  Selectivity v Col-3, + 44 ug/ml TIICol: 424 unitless
  Selectivity v Col-3, + .18 ug/ml TIICol: 190 unitless
  Selectivity v Col-3, + .55 ug/ml TIICol: 221 unitless
  Selectivity v Col-3, no TIICol: 166 unitless
Stromelysin 1 [12]
  Improvement In Selectivity for 44 ug/ml Type II Collagen vs no Type II Collagen: 2.5 fold
  Selectivity v Col-3, + 1.6 ug/ml TIICol: 389 unitless
  Selectivity v Col-3, + 4.9 ug/ml TIICol: 335 unitless
  Selectivity v Col-3, + 15 ug/ml TIICol: 447 unitless
  Selectivity v Col-3, + 44 ug/ml TIICol: 476 unitless
  Selectivity v Col-3, + .18 ug/ml TIICol: 263 unitless
  Selectivity v Col-3, + .55 ug/ml TIICol: 281 unitless
  Selectivity v Col-3, no TIICol: 192 unitless

## {Dabcyl′}-GPLGMRGC(fluorescein)-NH2 [Dabcyl-GPLGMRGC(Fluorescein)-NH2]
Collagenase 1 [13]
  selectivity towards Col-3: 215 fold
Human Gelatinase-A [5]
  Selectivity v Col-3, + Gel: 25.8 unitless
Gelatinase B [6]
  Selectivity v Col-3, + Gel: 6.3 unitless
Collagenase 1 [7]
  Selectivity v Col-3, + Gel: 78.4 unitless
Stromelysin 1 [8]
  Selectivity v Col-3, + Gel: 769 unitless
